# Data from patent publication US20140357577A1, “HIV Membrane Fusion Inhibitors” (priority 2011, published 2014).
# Starred links: 1 amine or outer side, 2 acyl side, 3 side chain; linkers in the order of their positions; H or OH if unused. Positions of bridges follow the written chain, without caps; N, C: chain ends. Non-standard residues stand in square brackets, D forms with d. *: point of attachment. cholesteryl‑oxycarbonylmethyl = CC(C)CCC[C@@H](C)[C@H]1CC[C@H]2[C@@H]3CC=C4C[C@@H](OC(=O)C*)CC[C@]4(C)[C@H]3CC[C@]12C; B21 = 2,7-dimethylnaphtyl, c1cc2ccc(C[*:2])cc2cc1C[*:1]; pXylylene = c1cc(C[*:2])ccc1C[*:1]; Suc = O=C(CCC(=O)[*:2])[*:1]; hCys = N[C@@H](CCS)C(=O)O; B1 = not defined here
# B1: peptide 74 (peptide)
# peptide: Ac-ECYAACIEALIRAAQEQQEKNEAALR-NH2
# modifications: linker 2-6 via pXylylene
# SMILES: CC[C@H](C)[C@H](NC(=O)[C@H](CC(C)C)NC(=O)[C@H](C)NC(=O)[C@H](CCC(=O)O)NC(=O)[C@@H](NC(=O)[C@@H]1CSCc2ccc(cc2)CSC[C@H](NC(=O)[C@H](CCC(=O)O)NC(C)=O)C(=O)N[C@@H](Cc2ccc(O)cc2)C(=O)N[C@@H](C)C(=O)N[C@@H](C)C(=O)N1)[C@@H](C)CC)C(=O)N[C@@H](CCCNC(=N)N)C(=O)N[C@@H](C)C(=O)N[C@@H](C)C(=O)N[C@@H](CCC(N)=O)C(=O)N[C@@H](CCC(=O)O)C(=O)N[C@@H](CCC(N)=O)C(=O)N[C@@H](CCC(N)=O)C(=O)N[C@@H](CCC(=O)O)C(=O)N[C@@H](CCCCN)C(=O)N[C@@H](CC(N)=O)C(=O)N[C@@H](CCC(=O)O)C(=O)N[C@@H](C)C(=O)N[C@@H](C)C(=O)N[C@@H](CC(C)C)C(=O)N[C@@H](CCCNC(=N)N)C(N)=O
# B2: peptide 80 (peptide)
# peptide: Ac-A[hCys]YAA[hCys]IEALIRKAQEQQEKNEAALR-NH2
# modifications: linker 2-6 via B21
# SMILES: CC[C@H](C)[C@H](NC(=O)[C@@H]1CCSCc2ccc3ccc(cc3c2)CSCC[C@H](NC(=O)[C@H](C)NC(C)=O)C(=O)N[C@@H](Cc2ccc(O)cc2)C(=O)N[C@@H](C)C(=O)N[C@@H](C)C(=O)N1)C(=O)N[C@@H](CCC(=O)O)C(=O)N[C@@H](C)C(=O)N[C@@H](CC(C)C)C(=O)N[C@H](C(=O)N[C@@H](CCCNC(=N)N)C(=O)N[C@@H](CCCCN)C(=O)N[C@@H](C)C(=O)N[C@@H](CCC(N)=O)C(=O)N[C@@H](CCC(=O)O)C(=O)N[C@@H](CCC(N)=O)C(=O)N[C@@H](CCC(N)=O)C(=O)N[C@@H](CCC(=O)O)C(=O)N[C@@H](CCCCN)C(=O)N[C@@H](CC(N)=O)C(=O)N[C@@H](CCC(=O)O)C(=O)N[C@@H](C)C(=O)N[C@@H](C)C(=O)N[C@@H](CC(C)C)C(=O)N[C@@H](CCCNC(=N)N)C(N)=O)[C@@H](C)CC
# B3: peptide 77 (peptide)
# peptide: Ac-A[hCys]YAA[hCys]IEALIRAAQEQQEKNEAALR-NH2
# modifications: linker 2-6 via B1; reading uncertain
# B4: peptide 75 (peptide)
# peptide: Ac-[dA]CYAACIEALIRAAQEQQEKNEAAL[dR]-NH2
# modifications: linker 2-6 via 2,7‑dimethylnaphthyl
# B5: peptide 83 (peptide)
# peptide: Ac-ACYAA[dC]IEALIRAAQEQQEKNEAALR-NH2
# modifications: linker 2-6 via pXylylene; not fully specified
# B6: peptide 79 (peptide)
# peptide: Ac-A[hCys]YAA[hCys]IEALIRKAQEQQEKNEAALR-NH2
# modifications: linker 2-6 via B21
# SMILES: CC[C@H](C)[C@H](NC(=O)[C@@H]1CCSCc2ccc3ccc(cc3c2)CSCC[C@H](NC(=O)[C@H](C)NC(C)=O)C(=O)N[C@@H](Cc2ccc(O)cc2)C(=O)N[C@@H](C)C(=O)N[C@@H](C)C(=O)N1)C(=O)N[C@@H](CCC(=O)O)C(=O)N[C@@H](C)C(=O)N[C@@H](CC(C)C)C(=O)N[C@H](C(=O)N[C@@H](CCCNC(=N)N)C(=O)N[C@@H](CCCCN)C(=O)N[C@@H](C)C(=O)N[C@@H](CCC(N)=O)C(=O)N[C@@H](CCC(=O)O)C(=O)N[C@@H](CCC(N)=O)C(=O)N[C@@H](CCC(N)=O)C(=O)N[C@@H](CCC(=O)O)C(=O)N[C@@H](CCCCN)C(=O)N[C@@H](CC(N)=O)C(=O)N[C@@H](CCC(=O)O)C(=O)N[C@@H](C)C(=O)N[C@@H](C)C(=O)N[C@@H](CC(C)C)C(=O)N[C@@H](CCCNC(=N)N)C(N)=O)[C@@H](C)CC
# B7: peptide 73 (peptide)
# peptide: Ac-ACYAACIEALIRAAQEQQEKNEALLR-NH2
# modifications: linker 2-6 via pXylylene
# SMILES: CC[C@H](C)[C@H](NC(=O)[C@H](CC(C)C)NC(=O)[C@H](C)NC(=O)[C@H](CCC(=O)O)NC(=O)[C@@H](NC(=O)[C@@H]1CSCc2ccc(cc2)CSC[C@H](NC(=O)[C@H](C)NC(C)=O)C(=O)N[C@@H](Cc2ccc(O)cc2)C(=O)N[C@@H](C)C(=O)N[C@@H](C)C(=O)N1)[C@@H](C)CC)C(=O)N[C@@H](CCCNC(=N)N)C(=O)N[C@@H](C)C(=O)N[C@@H](C)C(=O)N[C@@H](CCC(N)=O)C(=O)N[C@@H](CCC(=O)O)C(=O)N[C@@H](CCC(N)=O)C(=O)N[C@@H](CCC(N)=O)C(=O)N[C@@H](CCC(=O)O)C(=O)N[C@@H](CCCCN)C(=O)N[C@@H](CC(N)=O)C(=O)N[C@@H](CCC(=O)O)C(=O)N[C@@H](C)C(=O)N[C@@H](CC(C)C)C(=O)N[C@@H](CC(C)C)C(=O)N[C@@H](CCCNC(=N)N)C(N)=O
# B8: peptide 78 (peptide)
# peptide: Ac-A[hCys]YAA[hCys]IEALIRAAQEQQEKNEAALR-NH2
# modifications: linker 2-6 via B21
# SMILES: CC[C@H](C)[C@H](NC(=O)[C@H](CC(C)C)NC(=O)[C@H](C)NC(=O)[C@H](CCC(=O)O)NC(=O)[C@@H](NC(=O)[C@@H]1CCSCc2ccc3ccc(cc3c2)CSCC[C@H](NC(=O)[C@H](C)NC(C)=O)C(=O)N[C@@H](Cc2ccc(O)cc2)C(=O)N[C@@H](C)C(=O)N[C@@H](C)C(=O)N1)[C@@H](C)CC)C(=O)N[C@@H](CCCNC(=N)N)C(=O)N[C@@H](C)C(=O)N[C@@H](C)C(=O)N[C@@H](CCC(N)=O)C(=O)N[C@@H](CCC(=O)O)C(=O)N[C@@H](CCC(N)=O)C(=O)N[C@@H](CCC(N)=O)C(=O)N[C@@H](CCC(=O)O)C(=O)N[C@@H](CCCCN)C(=O)N[C@@H](CC(N)=O)C(=O)N[C@@H](CCC(=O)O)C(=O)N[C@@H](C)C(=O)N[C@@H](C)C(=O)N[C@@H](CC(C)C)C(=O)N[C@@H](CCCNC(=N)N)C(N)=O
# B9: peptide 84 (peptide)
# peptide: Ac-ACYAACIEALIRAAREQQEKNEAALR-NH2
# modifications: linker 2-6 via pXylylene
# SMILES: CC[C@H](C)[C@H](NC(=O)[C@H](CC(C)C)NC(=O)[C@H](C)NC(=O)[C@H](CCC(=O)O)NC(=O)[C@@H](NC(=O)[C@@H]1CSCc2ccc(cc2)CSC[C@H](NC(=O)[C@H](C)NC(C)=O)C(=O)N[C@@H](Cc2ccc(O)cc2)C(=O)N[C@@H](C)C(=O)N[C@@H](C)C(=O)N1)[C@@H](C)CC)C(=O)N[C@@H](CCCNC(=N)N)C(=O)N[C@@H](C)C(=O)N[C@@H](C)C(=O)N[C@@H](CCCNC(=N)N)C(=O)N[C@@H](CCC(=O)O)C(=O)N[C@@H](CCC(N)=O)C(=O)N[C@@H](CCC(N)=O)C(=O)N[C@@H](CCC(=O)O)C(=O)N[C@@H](CCCCN)C(=O)N[C@@H](CC(N)=O)C(=O)N[C@@H](CCC(=O)O)C(=O)N[C@@H](C)C(=O)N[C@@H](C)C(=O)N[C@@H](CC(C)C)C(=O)N[C@@H](CCCNC(=N)N)C(N)=O
# B10: peptide 82 (peptide)
# peptide: Suc-ECYLRCIEELIRKAQEQQEKNEAALRGSGC(cholesteryl‑oxycarbonylmethyl)-NH2
# modifications: linker 2-6 via pXylylene
# SMILES: CC[C@H](C)[C@H](NC(=O)[C@H](CC(C)C)NC(=O)[C@H](CCC(=O)O)NC(=O)[C@H](CCC(=O)O)NC(=O)[C@@H](NC(=O)[C@@H]1CSCc2ccc(cc2)CSC[C@H](NC(=O)[C@H](CCC(=O)O)NC(=O)CCC(=O)O)C(=O)N[C@@H](Cc2ccc(O)cc2)C(=O)N[C@@H](CC(C)C)C(=O)N[C@@H](CCCNC(=N)N)C(=O)N1)[C@@H](C)CC)C(=O)N[C@@H](CCCNC(=N)N)C(=O)N[C@@H](CCCCN)C(=O)N[C@@H](C)C(=O)N[C@@H](CCC(N)=O)C(=O)N[C@@H](CCC(=O)O)C(=O)N[C@@H](CCC(N)=O)C(=O)N[C@@H](CCC(N)=O)C(=O)N[C@@H](CCC(=O)O)C(=O)N[C@@H](CCCCN)C(=O)N[C@@H](CC(N)=O)C(=O)N[C@@H](CCC(=O)O)C(=O)N[C@@H](C)C(=O)N[C@@H](C)C(=O)N[C@@H](CC(C)C)C(=O)N[C@@H](CCCNC(=N)N)C(=O)NCC(=O)N[C@@H](CO)C(=O)NCC(=O)N[C@@H](CSCC(=O)O[C@H]1CC[C@@]2(C)C(=CC[C@H]3[C@@H]4CC[C@H]([C@H](C)CCCC(C)C)[C@@]4(C)CC[C@@H]32)C1)C(N)=O
# B11: peptide 72 (peptide)
# peptide: Ac-ACYAACIEELIRKAQEQQEKNEAALR-NH2
# modifications: linker 2-6 via pXylylene
# SMILES: CC[C@H](C)[C@H](NC(=O)[C@@H]1CSCc2ccc(cc2)CSC[C@H](NC(=O)[C@H](C)NC(C)=O)C(=O)N[C@@H](Cc2ccc(O)cc2)C(=O)N[C@@H](C)C(=O)N[C@@H](C)C(=O)N1)C(=O)N[C@@H](CCC(=O)O)C(=O)N[C@@H](CCC(=O)O)C(=O)N[C@@H](CC(C)C)C(=O)N[C@H](C(=O)N[C@@H](CCCNC(=N)N)C(=O)N[C@@H](CCCCN)C(=O)N[C@@H](C)C(=O)N[C@@H](CCC(N)=O)C(=O)N[C@@H](CCC(=O)O)C(=O)N[C@@H](CCC(N)=O)C(=O)N[C@@H](CCC(N)=O)C(=O)N[C@@H](CCC(=O)O)C(=O)N[C@@H](CCCCN)C(=O)N[C@@H](CC(N)=O)C(=O)N[C@@H](CCC(=O)O)C(=O)N[C@@H](C)C(=O)N[C@@H](C)C(=O)N[C@@H](CC(C)C)C(=O)N[C@@H](CCCNC(=N)N)C(N)=O)[C@@H](C)CC
# B12: peptide 76 (peptide)
# peptide: Ac-[dA]CYAACIEALIRAAQEQQEKNEAAL[dR]-NH2
# modifications: linker 2-6 via 2,7‑dimethylnaphthyl
# Molecular target: gp41 of HIV-1 strain HXB2D with mutation V38A (HIV-1 strain HXB2D, UniProt P04578)
# Assay: cell-based or functional assay
row,Binder,"fold change in EC50, HIV-HXB2D V38A mutant [fold]"
1,B1,33
2,B2,40
3,B3,39
4,B4,21
5,B5,6
6,B6,27
7,B7,60
8,B8,61
9,B9,9
10,B10,1
11,B11,10
12,B12,48
